The series deals with the molecule itself. As to the kind of experiment: self-association (homodimerization), observed with NMR (FIG. 3A-3C).

B1: HP-7 polypeptide (SEQ ID NO: 7) (peptide)
chain: GEIWKQHEDALQKFEEALNQFEDLKQLGGSGCGSGGEIWKQHEDALQKFEEALNQFEDLKQL
notes: also called free HP-7
Take B1: the binding result was “binds”.

The record behind these values is patent publication US20120034671A1 (RESEARCH FOUNDATION OF THE CITY UNIVERSITY OF NEW YORK, published 2012).
